Data as given in IntAct's records for PubMed 16247757.

B1: Lamina-associated polypeptide 2, isoform alpha (Homo sapiens), P42166 (parent)
chain: MPEFLEDPSVLTKDKLKSELVANNVTLPAGEQRKDVYVQLYLQHLTARNRPPLPAGTNSKGPPDFSSDEEREPTPVLGSGAAAAGRSRAAVGRKATKKTDKPRQEDKDDLDVTELTNEDLLDQLVKYGVNPGPIVGTTRKLYEKKLLKLREQGTESRSSTPLPTISSSAENTRQNGSNDSDRYSDNEEGKKKEHKKVKSTRDIVPFSELGTTPSGGGFFQGISFPEISTRPPLGSTELQAAKKVHTSKGDLPREPLVATNLPGRGQLQKLASERNLFISCKSSHDRCLEKSSSSSSQPEHSAMLVSTAASPSLIKETTTGYYKDIVENICGREKSGIQPLCPERSHISDQSPLSSKRKALEESESSQLISPPLAQAIRDYVNSLLVQGGVGSLPGTSNSMPPLDVENIQKRIDQSKFQETEFLSPPRKVPRLSEKSVEERDSGSFVAFQNIPGSELMSSFAKTVVSHSLTTLGLEVAKQSQHDKIDASELSFPFHESILKVIEEEWQQVDRQLPSLACKYPVSSREATQILSVPKVDDEILGFISEATPLGGIQAASTESCNQQLDLALCRAYEAAASALQIATHTAFVAKAMQADISQAAQILSSDPSRTHQALGILSKTYDAASYICEAAFDEVKMAAHTMGNATVGRRYLWLKDCKINLASKNKLASTPFKGGTLFGGEVCKVIKKRGNKH

Variants of: B1
Conditions: with lmna_human LMNA

| effect of a mutation on the interaction | Variant |
| --- | --- |
| decreasing interaction | R690C |
